Source: IntAct's records for PubMed 10921873

Legend:
cope_yeast SEC28 [1] = target: cope_yeast SEC28 (UniProt P40509)
gcs1_yeast GCS1 [2] = target: gcs1_yeast GCS1 (UniProt P35197)
glo3_yeast GLO3 [3] = target: glo3_yeast GLO3 (UniProt P38682)
copb_yeast SEC26 [4] = target: copb_yeast SEC26 (UniProt P41810)
cope_yeast SEC28 [5] = target: cope_yeast SEC28 (UniProt P40509); remark: listed apart in the source
glo3_yeast GLO3 [6] = target: glo3_yeast GLO3 (UniProt P38682); remark: listed apart in the source
copb_yeast SEC26 [7] = target: copb_yeast SEC26 (UniProt P41810); remark: listed apart in the source
gcs1_yeast GCS1 [8] = target: gcs1_yeast GCS1 (UniProt P35197); remark: listed apart in the source

Chain of ADP-ribosylation factor 1 (Homo sapiens), P84077 Q71L (P84077 whole entry Q71L): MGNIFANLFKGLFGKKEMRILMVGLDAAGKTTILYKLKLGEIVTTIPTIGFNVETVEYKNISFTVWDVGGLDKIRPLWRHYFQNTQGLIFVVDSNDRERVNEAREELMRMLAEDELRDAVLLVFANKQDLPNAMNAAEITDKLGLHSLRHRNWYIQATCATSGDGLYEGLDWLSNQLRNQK
Chain of copb_yeast SEC26 (P41810 whole entry): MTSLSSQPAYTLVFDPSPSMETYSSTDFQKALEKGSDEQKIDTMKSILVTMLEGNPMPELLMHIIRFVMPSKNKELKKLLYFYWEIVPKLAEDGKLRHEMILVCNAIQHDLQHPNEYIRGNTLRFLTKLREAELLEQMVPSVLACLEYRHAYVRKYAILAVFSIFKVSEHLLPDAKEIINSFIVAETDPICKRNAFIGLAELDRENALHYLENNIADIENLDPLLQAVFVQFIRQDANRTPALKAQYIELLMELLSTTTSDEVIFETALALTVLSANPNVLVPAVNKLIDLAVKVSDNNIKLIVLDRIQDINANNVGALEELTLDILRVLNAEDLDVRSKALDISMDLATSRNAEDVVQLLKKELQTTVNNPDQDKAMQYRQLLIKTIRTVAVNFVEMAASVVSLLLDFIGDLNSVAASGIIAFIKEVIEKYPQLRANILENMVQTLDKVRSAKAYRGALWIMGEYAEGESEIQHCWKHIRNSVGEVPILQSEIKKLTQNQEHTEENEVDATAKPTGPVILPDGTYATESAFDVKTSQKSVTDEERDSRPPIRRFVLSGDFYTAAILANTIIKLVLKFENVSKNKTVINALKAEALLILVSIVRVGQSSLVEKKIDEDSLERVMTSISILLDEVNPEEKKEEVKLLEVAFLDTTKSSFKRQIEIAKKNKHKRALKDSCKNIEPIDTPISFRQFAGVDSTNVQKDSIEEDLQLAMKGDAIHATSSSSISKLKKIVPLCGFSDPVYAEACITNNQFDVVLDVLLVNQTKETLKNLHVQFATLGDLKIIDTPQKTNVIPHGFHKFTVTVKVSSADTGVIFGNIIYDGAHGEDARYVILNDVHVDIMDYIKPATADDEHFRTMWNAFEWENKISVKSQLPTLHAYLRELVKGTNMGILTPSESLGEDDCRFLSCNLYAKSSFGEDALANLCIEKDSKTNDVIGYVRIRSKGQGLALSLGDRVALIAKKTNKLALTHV
Chain of cope_yeast SEC28 (P40509 whole entry): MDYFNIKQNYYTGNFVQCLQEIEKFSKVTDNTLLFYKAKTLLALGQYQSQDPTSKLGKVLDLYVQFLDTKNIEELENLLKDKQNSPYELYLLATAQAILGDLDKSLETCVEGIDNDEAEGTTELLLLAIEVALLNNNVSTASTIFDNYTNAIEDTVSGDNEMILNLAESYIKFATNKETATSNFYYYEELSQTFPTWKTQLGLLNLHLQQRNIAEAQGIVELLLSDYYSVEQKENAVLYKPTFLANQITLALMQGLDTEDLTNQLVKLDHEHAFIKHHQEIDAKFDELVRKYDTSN
Chain of gcs1_yeast GCS1 (P35197 whole entry): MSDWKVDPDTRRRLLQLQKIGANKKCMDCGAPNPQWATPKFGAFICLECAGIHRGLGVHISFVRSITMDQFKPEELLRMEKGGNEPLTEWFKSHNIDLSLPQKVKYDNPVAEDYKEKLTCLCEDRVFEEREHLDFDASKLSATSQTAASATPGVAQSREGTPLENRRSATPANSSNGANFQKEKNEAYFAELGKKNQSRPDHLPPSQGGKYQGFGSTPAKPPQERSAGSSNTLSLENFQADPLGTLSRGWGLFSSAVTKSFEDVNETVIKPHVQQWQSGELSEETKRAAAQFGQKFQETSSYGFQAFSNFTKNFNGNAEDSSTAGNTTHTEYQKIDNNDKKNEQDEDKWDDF
Chain of glo3_yeast GLO3 (P38682 whole entry): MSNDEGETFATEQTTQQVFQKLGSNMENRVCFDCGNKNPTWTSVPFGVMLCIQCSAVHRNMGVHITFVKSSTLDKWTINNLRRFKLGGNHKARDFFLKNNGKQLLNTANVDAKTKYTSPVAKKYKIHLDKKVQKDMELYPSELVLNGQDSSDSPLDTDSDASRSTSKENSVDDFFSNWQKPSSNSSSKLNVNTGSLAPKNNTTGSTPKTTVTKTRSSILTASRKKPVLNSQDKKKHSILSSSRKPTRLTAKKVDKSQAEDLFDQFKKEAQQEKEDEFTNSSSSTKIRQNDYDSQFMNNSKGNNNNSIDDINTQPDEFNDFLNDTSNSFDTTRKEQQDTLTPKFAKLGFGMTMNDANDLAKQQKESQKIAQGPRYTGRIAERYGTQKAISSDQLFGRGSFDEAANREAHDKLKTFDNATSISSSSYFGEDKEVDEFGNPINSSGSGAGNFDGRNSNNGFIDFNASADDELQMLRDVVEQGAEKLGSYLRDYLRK

effect of a mutation on the interaction (cope_yeast SEC28 [1]) | effect of a mutation on the interaction (gcs1_yeast GCS1 [2]) | effect of a mutation on the interaction (glo3_yeast GLO3 [3]) | effect of a mutation on the interaction (copb_yeast SEC26 [4]) | effect of a mutation on the interaction (cope_yeast SEC28 [5]) | effect of a mutation on the interaction (glo3_yeast GLO3 [6]) | effect of a mutation on the interaction (copb_yeast SEC26 [7]) | effect of a mutation on the interaction (gcs1_yeast GCS1 [8]) | Substance
increasing interaction | increasing interaction | increasing interaction | increasing interaction | – | – | – | – | ADP-ribosylation factor 1 (Homo sapiens), P84077 N126I
– | – | – | – | increasing interaction | increasing interaction | increasing interaction | increasing interaction | ADP-ribosylation factor 1 (Homo sapiens), P84077 Q71L
